Starred links: 1 amine or outer side, 2 acyl side, 3 side chain; linkers in the order of their positions; H or OH if unused. Non-standard residues stand in square brackets, D forms with d. *: point of attachment. Ala(piperidin-4-yl) = O=C([C@H](CC1CCN([*:3])CC1)N[*:1])[*:2]; X5 = tetrahydro‑2H‑pyran‑4‑yl‑carbamoyl, O=C(NC1CCOCC1)*; (5-carboxypentyl)carbamoyl = O=C(O)CCCCCNC(=O)*; Tetrahydropyran4carbonyl = O=C(C1CCOCC1)*; Arg(Me) = CNC(=N)NCCC[C@H](N)C(=O)O; morpholinocarbonyl = O=C(N1CCOCC1)*; 4Pal = N[C@@H](Cc1ccncc1)C(=O)O; Cha = N[C@@H](CC1CCCCC1)C(=O)O; Suc = O=C(CCC(=O)[*:2])[*:1]; dIva = CC[C@@](C)(N)C(=O)O; Aib = CC(C)(N)C(=O)O
Key:
human Y2 receptor [1] = biological target: T1, human Y2 receptor (Homo sapiens, UniProt P49146); assay: Receptor Binding Assay (RBA) for Human Y2, [125I]-PYY displacement on hY2R/CHO membrane fraction; conditions: IC50 of test compound/IC50 of PYY(3-36) (PYY(3-36) taken as 1)
T1 construct: expressed in transfected cells; membrane fraction
T1 sequence (P49146 1-381): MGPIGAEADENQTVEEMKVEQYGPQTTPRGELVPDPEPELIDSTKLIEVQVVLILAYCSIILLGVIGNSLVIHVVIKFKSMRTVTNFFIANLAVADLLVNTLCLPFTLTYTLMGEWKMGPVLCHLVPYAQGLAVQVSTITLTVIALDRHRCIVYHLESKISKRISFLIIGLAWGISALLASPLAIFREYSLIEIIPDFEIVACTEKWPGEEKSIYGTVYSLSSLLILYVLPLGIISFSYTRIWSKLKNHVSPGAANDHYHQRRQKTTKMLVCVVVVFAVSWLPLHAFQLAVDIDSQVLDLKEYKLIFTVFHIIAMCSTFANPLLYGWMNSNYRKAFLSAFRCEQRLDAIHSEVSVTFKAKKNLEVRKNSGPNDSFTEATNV
Procedure, shortened: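 hY2R stably expressed in CHO/dhfr− cells; membrane fraction prepared from cells disrupted in 10 mM NaHCO3, 5 mM EDTA buffer with protease inhibitors. Binding read as displacement of [125I]-PYY.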

male C57EL/6J mice = assay: 3-Days Continuous Subcutaneous Administration Test-1 (food intake suppressing activity); format: in vivo, mouse; conditions: 0.03 mg/kg/day, subcutaneous Alzet pump, food consumption over 3 days; relative to food intake suppression rate for PYY(3-36) (1 mg/kg/day) taken as 100%
Description: (4) Test Method: 3-Days Continuous Subcutaneous Administration Test-1
The food intake suppressing activity of the compound of the present invention was examined by the method described below.
The test compound was dissolved in 50% DMSO so that sustained release would occur at 0.03 mg/kg/day, and the solution was filled in the Alzet Pump (Alzet model: 1003D, sustained release rate: 1 μL/hr, capacity: 100 μL). After the filling, the pump was placed in a 2 mL Eppendorf tube containing 330 μL of physiological saline, and incubated at 37° C. for 2 hours or more. Thereafter, this pump was subcutaneously embedded in the back of each mouse by the method described below. After weighing, each male […] mice at 12-13 weeks of age (25° C., allowed to take food and water ad libitum; 12-hour bright-12-hour dark cycle, lighting turned on at 08:00) was anesthetized with diethyl ether; the skin in the upper back thereof was incised, and the above-mentioned pump was embedded subcutaneously. Thereafter, several drops of penicillin solution (100000 units/mL) were added to the incised part, and the incision was sutured using Michel's surgical needle. This mouse was returned to the rearing cage (reared alone), and given previously weighed food; 3 days later, the amount of remaining food was measured. Food consumption was calculated by subtracting the amount of remaining food after 3 days from the weight of the food given on the day of pump embedding. The food intake suppressing activity of each test compound was expressed as a food intake suppression rate (%) relative to the food intake suppression rate for PYY(3-36) (1 mg/kg/day) taken as 100%.

human Y2 receptor [2] = biological target: T1, human Y2 receptor; assay: Human Y2 Receptor G Protein Binding Assay (GBA), [35S]GTPγS; format: biochemical; conditions: EC50 of test compound/EC50 of PYY(3-36) (PYY3-36 taken as 1), hY2R/CHO membrane fraction
Procedure, shortened: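 Agonism measured as [35S]GTPγS binding, read by GF/C filtration and scintillation counting after 120 min at room temperature, using human Y2 membranes at 1 μg protein/mL in pH 7.4 Tris/MgCl2/NaCl/GDP buffer. Compound serially diluted 100 μM–1 nM; EC50 normalized to PYY(3-36) (ratio = compound/PYY).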

Substance | RBA IC50 Ratio (human Y2 receptor [1]) | food intake suppression rate (%) (male C57EL/6J mice) | GBA EC50 Ratio (human Y2 receptor [2])
Ac-[D-Pro24, Ala(4Pip)25, Pya(4)26, Cha27,36, Aib28,31, Lys30]-PYY(23-36) [compound No. 312] (Ac-S[dP][Ala(piperidin-4-yl)][4Pal][Cha][Aib]NK[Aib]TRQR[Cha]-NH2; SMILES CC(=O)N[C@@H](CO)C(=O)N1CCC[C@@H]1C(=O)N[C@@H](CC1CCNCC1)C(=O)N[C@@H](Cc1ccncc1)C(=O)N[C@@H](CC1CCCCC1)C(=O)NC(C)(C)C(=O)N[C@@H](CC(N)=O)C(=O)N[C@@H](CCCCN)C(=O)NC(C)(C)C(=O)N[C@H](C(=O)N[C@@H](CCCNC(=N)N)C(=O)N[C@@H](CCC(N)=O)C(=O)N[C@@H](CCCNC(=N)N)C(=O)N[C@@H](CC1CCCCC1)C(N)=O)[C@@H](C)O) | 4.3 | 10 | 5.8
Ac-[D-Pro24, Arg(Me)25,30, Pya(4)26, Cha27,36, Aib28,31]-PYY(23-36) (Ac-S[dP][Arg(Me)][4Pal][Cha][Aib]N[Arg(Me)][Aib]TRQR[Cha]-NH2; SMILES CNC(=N)NCCC[C@H](NC(=O)[C@H](CC(N)=O)NC(=O)C(C)(C)NC(=O)[C@H](CC1CCCCC1)NC(=O)[C@H](Cc1ccncc1)NC(=O)[C@H](CCCNC(=N)NC)NC(=O)[C@H]1CCCN1C(=O)[C@H](CO)NC(C)=O)C(=O)NC(C)(C)C(=O)N[C@H](C(=O)N[C@@H](CCCNC(=N)N)C(=O)N[C@@H](CCC(N)=O)C(=O)N[C@@H](CCCNC(=N)N)C(=O)N[C@@H](CC1CCCCC1)C(N)=O)[C@@H](C)O) [compound No. 315] | 1.5 | 45 | 1.5
(Tetrahydro-2H-pyran-4-yl)carbonyl-[D-Pro24, Pya(4)26, Cha27,36, Aib28,31, Lys30]-PYY(23-36) (Tetrahydropyran4carbonyl-S[dP]R[4Pal][Cha][Aib]NK[Aib]TRQR[Cha]-NH2; SMILES C[C@@H](O)[C@H](NC(=O)C(C)(C)NC(=O)[C@H](CCCCN)NC(=O)[C@H](CC(N)=O)NC(=O)C(C)(C)NC(=O)[C@H](CC1CCCCC1)NC(=O)[C@H](Cc1ccncc1)NC(=O)[C@H](CCCNC(=N)N)NC(=O)[C@H]1CCCN1C(=O)[C@H](CO)NC(=O)C1CCOCC1)C(=O)N[C@@H](CCCNC(=N)N)C(=O)N[C@@H](CCC(N)=O)C(=O)N[C@@H](CCCNC(=N)N)C(=O)N[C@@H](CC1CCCCC1)C(N)=O) [compound No. 324] | 1.1 | 42 | 0.71
Ac-[D-Pro24, Pya(4)26, Cha27,36, Aib28, Lys30, D-Iva31]-PYY(23-36) (Ac-S[dP]R[4Pal][Cha][Aib]NK[dIva]TRQR[Cha]-NH2; SMILES CC[C@@](C)(NC(=O)[C@H](CCCCN)NC(=O)[C@H](CC(N)=O)NC(=O)C(C)(C)NC(=O)[C@H](CC1CCCCC1)NC(=O)[C@H](Cc1ccncc1)NC(=O)[C@H](CCCNC(=N)N)NC(=O)[C@H]1CCCN1C(=O)[C@H](CO)NC(C)=O)C(=O)N[C@H](C(=O)N[C@@H](CCCNC(=N)N)C(=O)N[C@@H](CCC(N)=O)C(=O)N[C@@H](CCCNC(=N)N)C(=O)N[C@@H](CC1CCCCC1)C(N)=O)[C@@H](C)O) [compound No. 232] | 0.55 | 34 | 1.6
Ac-[Aib24,28,31, Pya(4)26, Cha27,36, Lys30]-PYY(23-36) (Ac-S[Aib]R[4Pal][Cha][Aib]NK[Aib]TRQR[Cha]-NH2; SMILES CC(=O)N[C@@H](CO)C(=O)NC(C)(C)C(=O)N[C@@H](CCCNC(=N)N)C(=O)N[C@@H](Cc1ccncc1)C(=O)N[C@@H](CC1CCCCC1)C(=O)NC(C)(C)C(=O)N[C@@H](CC(N)=O)C(=O)N[C@@H](CCCCN)C(=O)NC(C)(C)C(=O)N[C@H](C(=O)N[C@@H](CCCNC(=N)N)C(=O)N[C@@H](CCC(N)=O)C(=O)N[C@@H](CCCNC(=N)N)C(=O)N[C@@H](CC1CCCCC1)C(N)=O)[C@@H](C)O) [compound No. 240] | 0.81 | 36 | 1.1
3-Carboxypropionyl-[Gln23, D-Pro24, Pya(4)26, Cha27,36, Aib28,31, Lys30]-PYY(23-36) (Suc-Q[dP]R[4Pal][Cha][Aib]NK[Aib]TRQR[Cha]-NH2; SMILES C[C@@H](O)[C@H](NC(=O)C(C)(C)NC(=O)[C@H](CCCCN)NC(=O)[C@H](CC(N)=O)NC(=O)C(C)(C)NC(=O)[C@H](CC1CCCCC1)NC(=O)[C@H](Cc1ccncc1)NC(=O)[C@H](CCCNC(=N)N)NC(=O)[C@H]1CCCN1C(=O)[C@H](CCC(N)=O)NC(=O)CCC(=O)O)C(=O)N[C@@H](CCCNC(=N)N)C(=O)N[C@@H](CCC(N)=O)C(=O)N[C@@H](CCCNC(=N)N)C(=O)N[C@@H](CC1CCCCC1)C(N)=O) [compound No. 218] | 2 | 27 | 1.9
Ac-[D-Pro24, Arg(Me)25, Pya(4)26, Cha27,36, Aib28,31, Lys30]-PYY(23-36) [compound No. 319] | 1.1 | 40 | 1.3
Ac-[D-Pro24, Pya(4)26, Cha27,36, Aib28,31, Arg(Me)30]-PYY(23-36) (Ac-S[dP]R[4Pal][Cha][Aib]N[Arg(Me)][Aib]TRQR[Cha]-NH2) [compound No. 314] | 1.1 | 21 | 1.2
Tetrahydro-2H-pyran-4-yl-carbamoyl-[D-Pro24, Pya(4)26, Cha27,36, Aib28,31, Lys30]-PYY(23-36) (X5-S[dP]R[4Pal][Cha][Aib]NK[Aib]TRQR[Cha]-NH2; ends and bridges not checked) [compound No. 270] | 0.52 | 28 | 0.61
4-Imidazolecarbonyl-[Aib24,28,31, Iva25, Pya(4)26, Cha27,36, Lys30]-PYY(23-36) [compound No. 344] | 1.9 | 22 | 1.7
Morpholinocarbonyl-[D-Pro24, Pya(4)26, Cha27,36, Aib28,31, Lys30]-PYY(23-36) (morpholinocarbonyl-S[dP]R[4Pal][Cha][Aib]NK[Aib]TRQR[Cha]-NH2; SMILES C[C@@H](O)[C@H](NC(=O)C(C)(C)NC(=O)[C@H](CCCCN)NC(=O)[C@H](CC(N)=O)NC(=O)C(C)(C)NC(=O)[C@H](CC1CCCCC1)NC(=O)[C@H](Cc1ccncc1)NC(=O)[C@H](CCCNC(=N)N)NC(=O)[C@H]1CCCN1C(=O)[C@H](CO)NC(=O)N1CCOCC1)C(=O)N[C@@H](CCCNC(=N)N)C(=O)N[C@@H](CCC(N)=O)C(=O)N[C@@H](CCCNC(=N)N)C(=O)N[C@@H](CC1CCCCC1)C(N)=O) [compound No. 268] | 0.89 | 16 | 0.57
(5-carboxypentyl)carbamoyl-[D-Pro24, Pya(4)26, Cha27,36, Aib28,31, Lys30]-PYY(23-36) ({(5-carboxypentyl)carbamoyl}-S[dP]R[4Pal][Cha][Aib]NK[Aib]TRQR[Cha]-NH2; SMILES C[C@@H](O)[C@H](NC(=O)C(C)(C)NC(=O)[C@H](CCCCN)NC(=O)[C@H](CC(N)=O)NC(=O)C(C)(C)NC(=O)[C@H](CC1CCCCC1)NC(=O)[C@H](Cc1ccncc1)NC(=O)[C@H](CCCNC(=N)N)NC(=O)[C@H]1CCCN1C(=O)[C@H](CO)NC(=O)NCCCCCC(=O)O)C(=O)N[C@@H](CCCNC(=N)N)C(=O)N[C@@H](CCC(N)=O)C(=O)N[C@@H](CCCNC(=N)N)C(=O)N[C@@H](CC1CCCCC1)C(N)=O) [compound No. 294] | 1.2 | 45 | 1.5
